The values below come from US20050042747A1, “Hivgp120-induced bob/gpr15 activation” (priority 2001, published 2005).

One test concerns the target GPR15/Bob (human) (UniProt P49685). Put plainly: cell-based or functional assay.
A further test has as its target CCR5 (UniProt P51681). Put plainly: cell-based or functional assay.
The target of the next test is CXCR4 (UniProt P61073). Put plainly: quantitative cellular enzyme-linked assay on HT-29-D4 cells.

Bounds are passed on as bounds.

Sequence of GPR15/Bob (human) (P49685 whole entry): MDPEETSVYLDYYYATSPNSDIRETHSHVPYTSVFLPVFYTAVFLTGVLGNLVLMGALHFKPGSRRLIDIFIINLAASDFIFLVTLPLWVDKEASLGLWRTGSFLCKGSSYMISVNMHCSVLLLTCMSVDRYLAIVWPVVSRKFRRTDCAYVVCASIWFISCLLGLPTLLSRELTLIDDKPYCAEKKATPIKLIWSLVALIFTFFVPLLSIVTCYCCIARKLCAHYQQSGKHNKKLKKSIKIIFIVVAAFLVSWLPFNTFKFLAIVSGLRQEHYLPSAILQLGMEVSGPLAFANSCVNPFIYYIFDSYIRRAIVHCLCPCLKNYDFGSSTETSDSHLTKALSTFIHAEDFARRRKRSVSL

Take “gp120SF2 (from UniProt P03378 32-509) (ligand)”: the calcium signaling in HT-29 cells in the test with GPR15/Bob (human) was > 10 nM. Turning to gp120(SEN) (ligand), the relative TEER 20 min after the addition of gp120, HT-29-D4 cells (relative TEER) in the test with GPR15/Bob (human) was determined as 2.52. In the case of “gp120MN (from UniProt P05877 32-513) (ligand)”, the calcium signaling in HT-29 cells with GPR15/Bob (human) was > 10 nM.

With gp12093TH975 (ligand), the calcium signaling in HT-29 cells with GPR15/Bob (human) is > 10 nM. In addition, in the test with CCR5, the minimal gp120 concentration giving a calcium flux, transfected Ghost (3) cells was determined as 100 nM.

“anti-CXCR4 mouse monoclonal antibody (clone 12G5)” showed a concentration giving saturation binding with CXCR4 of 20 µg/mL. As to “gp120(IIIB), purified from HIV-1(IIIB) (from UniProt P03375 33-511) (ligand)”, in the test with GPR15/Bob (human), the relative TEER 20 min after the addition of gp120, HT-29-D4 cells (relative TEER) turned out to be 1.6. For gp120CM235 (ligand), in the test with GPR15/Bob (human), the least gp120 concentration inducing calcium signaling, Bob-transfected Ghost (3) cells is 8 pM; the minimal concentration causing calcium signaling in HT-29 cells came to 2.5 nM; the minimal gp120 concentration giving a calcium flux, transfected Ghost (3) cells was 10 pM.
